Results taken from paper PMC2723105, “DNA binding by Corynebacterium glutamicum TetR-type transcription regulator AmtR”.

Assays:
[1] = target: T1, AmtR-MBP wild type (Corynebacterium glutamicum ATCC13032) (UniProt H7C699); experiment: EMSA; details: EMSA: DIG gel shift kit (Roche) conditions, 0.04 ng DNA, native 6% PAGE in 0.5x TBE; SPR: HBS-EP running buffer, 25 °C, BIAcoreX, nonspecific 30-mer DNA in the …
T1 sequence: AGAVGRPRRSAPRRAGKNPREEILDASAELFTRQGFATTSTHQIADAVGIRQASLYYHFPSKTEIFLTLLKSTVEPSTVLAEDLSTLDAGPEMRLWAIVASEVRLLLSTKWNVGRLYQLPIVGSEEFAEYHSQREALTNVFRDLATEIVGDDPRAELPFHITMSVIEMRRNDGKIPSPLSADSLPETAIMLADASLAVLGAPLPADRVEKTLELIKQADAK

AmtR-MBP wild type [2] = target: T2, AmtR-MBP wild type (Corynebacterium glutamicum ATCC13032, UniProt H7C699 2-222); experiment: EMSA; details: EMSA: DIG gel shift kit (Roche) conditions, 0.04 ng DNA, native 6% PAGE in 0.5x TBE; SPR: HBS-EP running buffer, 25 °C, BIAcoreX, nonspecific 30-mer DNA in the …
T2 sequence: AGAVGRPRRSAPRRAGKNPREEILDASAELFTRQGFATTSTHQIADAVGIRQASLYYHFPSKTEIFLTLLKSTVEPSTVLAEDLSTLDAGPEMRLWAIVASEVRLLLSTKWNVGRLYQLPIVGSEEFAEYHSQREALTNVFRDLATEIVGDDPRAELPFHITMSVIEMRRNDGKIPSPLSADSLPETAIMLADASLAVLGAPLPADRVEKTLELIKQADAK

AmtR-MBP wild type [3] = target: T2, AmtR-MBP wild type; experiment: SPR; EMSA: DIG gel shift kit (Roche) conditions, 0.04 ng DNA, native 6% PAGE in 0.5x TBE; SPR: HBS-EP running buffer, 25 °C, BIAcoreX, nonspecific 30-mer DNA in the; details: protein: recombinant; tags: N-terminal MBP (pMalc2); chain copies: 2; label: 3' biotin on forward strand; blunt

In the case of “GCCCGTGGTGTGCTCACCAATGATGAAGTCGACGCGCTGACACAGGTGTGGACTTCCGCACTGAGCTTGCAGTCGAAACGTTGGATGGATCACATCCATGATCAAGAAACCACCGCTTGGGAGCTTCCCGCGCTGCAACGTGCCACTTTTGGCGCATCGGCTCGGTTGCTTTCTGAGGTGTTGCGGTCCGTTGAAGCCCGTGAAATCGATACCATAATAGGAACTCTG (double strand) [amtR upstream DNA, additional spacing nucleotide]”, the binding [1] is reported as “binds”.

“GCTGGGCTAGAAACCCGATAAGCGAGAACCACCTGTCGGATGTTGTCTGGCAGGTGGTTTTCTTTTGCCTGGGTACCACCAAAAAGCAGCTGTGATGCACTTAACAATTCATTAAATTACCTGTTAAACTATAGAAAATATCCAAAACCCTCCAAAACCTATTCTATAGATCTATTGAAATTAGTTTCTGTAGGTCTATAGTTAGAGCTGGTTCAAGGGGTGTCAATCCCAAAAGGCACTCCTTGAACTCATGAAAAAGCTTGACAAAACTTCAACGTCAAAGGAGGTCATCCACGC (double strand) [amtB promoter PCR fragment]” gave a Kd [1] of 2400 nM.

In the case of amtB promoter PCR fragment, the Kd (AmtR-MBP wild type [2]) is reported as 2400 nM.

B1: amtBp SPR 30-mer (dsDNA)
DNA 1: TAAATTACCTGTTAAACTATAGAAAATATC
DNA 2: GATATTTTCTATAGTTTAACAGGTAATTTA
B1: binds (AmtR-MBP wild type [3]).
